Data from US8119354B2, “Cell-free assay product and method of use thereof for measuring activity of frizzled receptors” (Universitaet Konstanz, priority 2007, dated 2012).
Blank lines part the entries; values can stand above or below the molecule they belong to.

Experiments:
hFz1 = target: T1, hFz1 (Homo sapiens, UniProt Q9UP38); test: Europium-GTP assay of G protein (Go) activation by hFz1 membranes; type: biochemical; conditions: for relative stimulation among the Wnt ligands tested: detergent-solubilized hFz1, GTP incorporation into Go; for activation of the trimeric Go protein (GTP incorporation into Go): detergent-solubilized hFz1-expressing membrane fractions, not control membranes
T1 construct: made in house; host or cells: Escherichia coli (pMAL-p2), membrane fraction
Description: The coding sequence of hFz1 was cloned in-frame into the pMAL-p2 plasmid (New England BioLabs) allowing expression of the protein as an N-terminal fusion with maltose binding protein (MBP). The natural signal sequence of MBP directs the fusion protein through the cytoplasmic membrane. Expression conditions were optimized to allow slow expression to maximize correct hFz1 folding: Expression was performed at 18° C. for 18 h, and in the presence of glucose to minimize the expression of endogenous MBP protein.
Bacteria were harvested by centrifugation, resuspended in PBS (phosphate-buffered saline) and disrupted by French press. The resultant suspension was cleared from the cell debris by low-speed centrifugation, followed by ultracentrifugation to pellet the membranes expressing MBP-hFz1. The membranes were resuspended in PBS supplemented with the protease-inhibitor cocktail (Roche) and frozen in aliquots at −80° C. Control bacteria were transformed with the empty pMAL-p2 vector, induced with IPTG, grown and harvested in parallel with hFz1-transformed bacteria.
HFz1 coding sequence was subcloned into pIRES2-DsRed-Express plasmid (Invitrogen). CHO cells were transiently transfected with lipofectamine following manufacturer's protocol. Transfection efficiency was estimated to be >50%. Two days post-transfection, transfected cells in parallel with control non-transfected cells of a similar cell density were washed, detached with EDTA, pelleted, washed with PBS, and disrupted in a glass-rod homogenizer in a hypotonic buffer (10 mM Hepes pH 7.5). Membrane fraction was prepared and stored as above.
Europium-GTP assay of G protein activation using a time-resolved fluorescence assay was performed. In one well of a 96-well AcroWell plate, 100 μl were mixed containing 4-10 μg/ml membrane protein from the hFz1 expression in bacteria or in CHO, 50 mM Hepes, pH 7.4, 1 mM MgCl2, 50 mM NaCl and 1 mg/ml saponin. Bacterial membranes expressing hFz1 or bacterial control membranes were used at 0.1 mg/ml protein concentration for membrane protein preparation. CHO membranes expressing hFz1 or CHO control membranes were used at 0.01 mg/ml protein concentration. Varying amounts of the following were added: bovine brain Go (Calbiochem), Wnt3a (R&Dsystems), Wnt3a-conditioned or control L-cell medium. Extra GDP was omitted in most experiments. 30 min after incubating this mixture at room temperature on a shaker (100 rpm), Europium-GTP was added, and incubation was continued for 30 more min. Afterwards the content of the wells was filtered and washed using the Multiscreen Vacuum Manifold (Millipore). Amounts of Europium-GTP retained by the membranes were then measured using the Perkin Elmer Victor3 Multilabel Plate Reader.

[1] = Solubility of purified Wnt3A after heparin chromatography; type: physicochemical; conditions: 1×PBS, 1M NaCl, 1% CHAPS, pH7.3
Description: To purify Wnt protein as an example for a typical Fz ligand LWnt3A or LWnt5A cell lines producing and secreting Wnt proteins were used. By growing the cells adherent for 4 days from a 1:10 to 1:20 split high amounts of Wnt-3A were obtained. The medium was DMEM plus 10% FBS, omitting the serum lowers the levels of Wnt protein in the medium. The Wnt containing medium was filtered, detergent was added (Triton X-100 or CHAPS) to a final concentration of 1%, and the medium was refiltered just before applying the material to Blue Sepharose.
Purification by Blue Sepharose fractionation yielded pure Wnt protein, wherein Wnt3A conditioned medium was applied on a Blue Sepharose HP column. Wnt elution from Blue Sepharose was done in a single step from 150 mM to 1.5 M KCl. Approximately, half of the Wnt protein eluted immediately with the salt and the majority of contaminants, but the other half was retained and eluted later in a second pool. This second pool contained much less total protein and consequently contained a higher proportion of Wnt.
Pooled eluted Wnt fractions from Blue Sepharose purification were concentrated by […] to 5 or 10 ml volume using Centricon or Amicon Ultra 30 ultrafiltration device (Amicon) depending on size of […] column. […]

hFz6 = target: T2, hFz6 (Homo sapiens, UniProt O60353); test: in vitro Go activation assay with bacterially expressed hFz6; type: biochemical; conditions: detergent-solubilized bacterially expressed hFz6
T2 construct: made in house
Text: (§1) The results obtained with three human Frizzled receptors (hFz1, hFz6, hFz7) and four Wnt ligands (Wnt3a, Wnt5a, Wnt5b, and Wnt7a) allow to compose a table of pair-wise Wnt-Frizzled activations using Go stimulation as the read-out (FIG. 5C).
(§2) Detergent-solubilized hFz6 and Fz7 stimulated GTP incorporation into Go in the presence of different Wnt ligands. Data are presented in FIG. 5C as summary of the capacity of the tested Wnt ligands to stimulate the tested Frizzled receptors to activate Go in vitro. […] Go activation by the Wnt-Frizzled pairs is denoted (in the order of the decreasing activation capacity) as “+++”, “++”, “+”, “+/−”, and “−” using as criteria the lowest Go-activating Wnt concentration as well as the maximal Go activation level achieved by any Wnt concentration.
(§3) Europium-GTP assay of G protein activation using a time-resolved fluorescence assay was performed. In one well of a 96-well AcroWell plate, 100 μl were mixed containing 4-10 μg/ml membrane protein from the hFz1 expression in bacteria or in CHO, 50 mM Hepes, pH 7.4, 1 mM MgCl2, 50 mM NaCl and 1 mg/ml saponin. Bacterial membranes expressing hFz1 or bacterial control membranes were used at 0.1 mg/ml protein concentration for membrane protein preparation. […] Amounts of Europium-GTP retained by the membranes were then measured using the Perkin Elmer Victor3 Multilabel Plate Reader.

hFz7 = target: T3, hFz7 (Homo sapiens, UniProt O75084); test: in vitro Go activation assay with bacterially expressed hFz7; type: biochemical; conditions: detergent-solubilized bacterially expressed hFz7
T3 construct: made in house
Text: as §1, §2, §3

T1 sequence (Q9UP38 70-647): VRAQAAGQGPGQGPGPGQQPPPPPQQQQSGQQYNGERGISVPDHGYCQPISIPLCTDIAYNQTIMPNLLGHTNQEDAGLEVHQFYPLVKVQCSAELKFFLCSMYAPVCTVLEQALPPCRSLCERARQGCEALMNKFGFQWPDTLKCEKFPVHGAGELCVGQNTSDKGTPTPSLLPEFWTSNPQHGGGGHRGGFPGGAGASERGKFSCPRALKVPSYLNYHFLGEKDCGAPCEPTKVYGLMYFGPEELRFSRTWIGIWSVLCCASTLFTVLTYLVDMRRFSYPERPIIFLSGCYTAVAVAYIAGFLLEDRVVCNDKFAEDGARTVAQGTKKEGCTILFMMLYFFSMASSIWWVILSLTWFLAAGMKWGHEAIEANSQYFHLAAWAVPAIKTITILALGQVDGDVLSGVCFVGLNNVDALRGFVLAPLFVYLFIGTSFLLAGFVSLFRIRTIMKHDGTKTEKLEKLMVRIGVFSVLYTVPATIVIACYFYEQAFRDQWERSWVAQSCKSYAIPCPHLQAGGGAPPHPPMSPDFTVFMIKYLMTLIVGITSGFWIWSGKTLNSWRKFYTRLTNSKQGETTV

Molecule: Wnt3a
stimulation of hFz1 activity towards Go (hFz1; E. coli-produced hFZ1 membranes, 0.3 μg/ml purified Wnt3a): stimulated
relative stimulation among the Wnt ligands tested (hFz1): most active
solubility and activity maintained at a maximum concentration [1]: ≤ 100 µg/mL

B1: Wnt5b: Wnt ligand (secreted Wnt family protein), frizzled receptor agonist (protein, UniProt Q9H1J7 18-359, looked up)
Protein Wnt-5b: QLLTDANSWWSLALNPVQRPEMFIIGAQPVCSQLPGLSPGQRKLCQLYQEHMAYIGEGAKTGIKECQHQFRQRRWNCSTADNASVFGRVMQIGSRETAFTHAVSAAGVVNAISRACREGELSTCGCSRTARPKDLPRDWLWGGCGDNVEYGYRFAKEFVDAREREKNFAKGSEEQGRVLMNLQNNEAGRRAVYKMADVACKCHGVSGSCSLKTCWLQLAEFRKVGDRLKEKYDSAAAMRVTRKGRLELVNSRFTQPTPEDLVYVDPSPDYCLRNESTGSLGTQGRLCNKTSEGMDGCELMCCGRGYNQFKSVQVERCHCKFHWCCFVRCKKCTEIVDQYICK
activation of the trimeric Go protein (GTP incorporation into Go) (hFz1): concentration-dependent activation
relative stimulation among the Wnt ligands tested (hFz1): more modest stimulation

B3: Wnt5a: Wnt ligand (secreted Wnt family protein), frizzled receptor agonist (protein, UniProt P41221 62-380, looked up)
Protein Wnt-5a: IIGAQPLCSQLAGLSQGQKKLCHLYQDHMQYIGEGAKTGIKECQYQFRHRRWNCSTVDNTSVFGRVMQIGSRETAFTYAVSAAGVVNAMSRACREGELSTCGCSRAARPKDLPRDWLWGGCGDNIDYGYRFAKEFVDARERERIHAKGSYESARILMNLHNNEAGRRTVYNLADVACKCHGVSGSCSLKTCWLQLADFRKVGDALKEKYDSAAAMRLNSRGKLVQVNSRFNSPTTQDLVYIDPSPDYCVRNESTGSLGTQGRLCNKTSEGMDGCELMCCGRGYDQFKTVQTERCHCKFHWCCYVKCKKCTEIVDQFVCK
activation of the trimeric Go protein (GTP incorporation into Go) (hFz1): concentration-dependent activation
relative stimulation among the Wnt ligands tested (hFz1): most active
Go activation by hFz7 upon addition of ligand (hFz7): mostly stimulated

Next, values leading:

stimulation of hFz1 activity towards Go (hFz1; E. coli produced hFz1 membranes, Wnt5a mimetic peptide): can be stimulated
Molecule: fMDGCEL [reference compound]

activation of the trimeric Go protein (GTP incorporation into Go) (hFz1): concentration-dependent activation
relative stimulation among the Wnt ligands tested (hFz1): more modest stimulation
Go activation by hFz6 upon addition of ligand (hFz6): activated Go
B2: Wnt7a: Wnt ligand (secreted Wnt family protein), frizzled receptor agonist (protein, UniProt O00755 32-349, looked up)
Protein Wnt-7a: LGASIICNKIPGLAPRQRAICQSRPDAIIVIGEGSQMGLDECQFQFRNGRWNCSALGERTVFGKELKVGSREAAFTYAIIAAGVAHAITAACTQGNLSDCGCDKEKQGQYHRDEGWKWGGCSADIRYGIGFAKVFVDAREIKQNARTLMNLHNNEAGRKILEENMKLECKCHGVSGSCTTKTCWTTLPQFRELGYVLKDKYNEAVHVEPVRASRNKRPTFLKIKKPLSYRKPMDTDLVYIEKSPNYCEEDPVTGSVGTQGRACNKTAPQASGCDLMCCGRGYNTHQYARVWQCNCKFHWCCYVKCNTCSERTEMYTCK
